# T1: endogenous TLR4 of mouse macrophages (BMDMs) and mouse colon (mouse, UniProt Q9QUK6 26-835)
# T1 construct: whole, on cells; Detected by immunoblot after co-immunoprecipitation from lysates
# T1 sequence (looked up): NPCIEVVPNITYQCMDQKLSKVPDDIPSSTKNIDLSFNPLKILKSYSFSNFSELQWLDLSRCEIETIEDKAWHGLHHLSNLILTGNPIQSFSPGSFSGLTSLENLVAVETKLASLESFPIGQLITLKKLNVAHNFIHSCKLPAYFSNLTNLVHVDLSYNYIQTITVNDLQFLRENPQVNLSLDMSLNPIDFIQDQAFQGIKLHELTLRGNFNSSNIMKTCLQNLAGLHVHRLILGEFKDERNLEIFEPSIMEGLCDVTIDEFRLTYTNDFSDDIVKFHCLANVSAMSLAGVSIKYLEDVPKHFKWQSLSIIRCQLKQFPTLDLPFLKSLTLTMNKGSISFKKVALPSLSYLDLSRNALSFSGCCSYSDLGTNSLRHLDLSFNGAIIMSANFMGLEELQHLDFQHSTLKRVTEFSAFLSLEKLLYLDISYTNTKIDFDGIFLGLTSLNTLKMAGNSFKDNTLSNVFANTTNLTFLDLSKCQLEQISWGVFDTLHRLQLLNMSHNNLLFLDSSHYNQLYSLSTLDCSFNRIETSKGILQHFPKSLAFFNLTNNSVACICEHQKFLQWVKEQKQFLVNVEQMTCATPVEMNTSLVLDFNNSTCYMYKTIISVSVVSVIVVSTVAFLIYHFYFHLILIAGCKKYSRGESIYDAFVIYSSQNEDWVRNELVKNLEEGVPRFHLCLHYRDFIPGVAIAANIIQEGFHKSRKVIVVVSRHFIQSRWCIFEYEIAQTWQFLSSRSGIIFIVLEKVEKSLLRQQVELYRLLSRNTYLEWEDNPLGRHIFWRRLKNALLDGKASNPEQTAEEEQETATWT
# T2: endogenous CYBB of mouse macrophages (BMDMs) and mouse colon (mouse, UniProt Q61093 2-570)
# T2 construct: whole, on cells; Detected by immunoblot after co-immunoprecipitation from lysates; also called NOX2; gp91Phox
# T2 sequence (looked up): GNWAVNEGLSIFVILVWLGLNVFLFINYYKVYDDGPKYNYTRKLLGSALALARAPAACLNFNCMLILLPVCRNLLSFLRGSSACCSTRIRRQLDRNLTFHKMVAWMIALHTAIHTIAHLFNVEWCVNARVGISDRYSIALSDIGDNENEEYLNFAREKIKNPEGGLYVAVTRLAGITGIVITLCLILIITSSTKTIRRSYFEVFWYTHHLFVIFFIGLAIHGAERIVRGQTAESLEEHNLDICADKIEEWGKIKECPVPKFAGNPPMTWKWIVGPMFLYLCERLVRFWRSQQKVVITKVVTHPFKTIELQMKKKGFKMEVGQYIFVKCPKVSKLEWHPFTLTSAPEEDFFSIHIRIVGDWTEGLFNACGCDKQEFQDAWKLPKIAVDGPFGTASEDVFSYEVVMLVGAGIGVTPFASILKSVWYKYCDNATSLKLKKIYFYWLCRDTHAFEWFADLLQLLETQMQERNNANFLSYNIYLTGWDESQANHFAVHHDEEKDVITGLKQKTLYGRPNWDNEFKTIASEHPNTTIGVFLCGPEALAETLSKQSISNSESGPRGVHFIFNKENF
# B1: endogenous ASC of mouse macrophages (BMDMs) (other, UniProt Q9EPB4 1-193, looked up)
# chain: MGRARDAILDALENLSGDELKKFKMKLLTVQLREGYGRIPRGALLQMDAIDLTDKLVSYYLESYGLELTMTVLRDMGLQELAEQLQTTKEESGAVAAAASVPAQSTARTGHFVDQHRQALIARVTEVDGVLDALHGSVLTEGQYQAVRAETTSQDKMRKLFSFVPSWNLTCKDSLLQALKEIHPYLVMDLEQS
# B2: endogenous NAMPT / extracellular NAMPT (eNAMPT) of mouse macrophages (BMDMs) and mouse colon (enzyme, UniProt Q99KQ4 1-491, looked up)
# chain: MNAAAEAEFNILLATDSYKVTHYKQYPPNTSKVYSYFECREKKTENSKVRKVKYEETVFYGLQYILNKYLKGKVVTKEKIQEAKEVYREHFQDDVFNERGWNYILEKYDGHLPIEVKAVPEGSVIPRGNVLFTVENTDPECYWLTNWIETILVQSWYPITVATNSREQKKILAKYLLETSGNLDGLEYKLHDFGYRGVSSQETAGIGASAHLVNFKGTDTVAGIALIKKYYGTKDPVPGYSVPAAEHSTITAWGKDHEKDAFEHIVTQFSSVPVSVVSDSYDIYNACEKIWGEDLRHLIVSRSTEAPLIIRPDSGNPLDTVLKVLDILGKKFPVTENSKGYKLLPPYLRVIQGDGVDINTLQEIVEGMKQKKWSIENVSFGSGGALLQKLTRDLLNCSFKCSYVVTNGLGVNVFKDPVADPNKRSKKGRLSLHRTPAGNFVTLEEGKGDLEEYGHDLLHTVFKNGKVTKSYSFDEVRKNAQLNIEQDVAPH
# notes: Endogenous protein of mouse cells or tissue, immunoprecipitated with anti-NAMPT; also called iNAMPT
# B3: recombinant NAMPT protein (rNAMPT) (enzyme)
# chain: MNPAAEAEFNILLATDSYKVTHYKQYPPNTSKVYSYFECREKKTENSKLRKVKYEETVFYGLQYILNKYLKGKVVTKEKIQEAKDVYKEHFQDDVFNEKGWNYILEKYDGHLPIEIKAVPEGFVIPRGNVLFTVENTDPECYWLTNWIETILVQSWYPITVATNSREQKKILAKYLLETSGNLDGLEYKLHDFGYRGVSSQETAGIGASAHLVNFKGTDTVAGLALIKKYYGTKDPVPGYSVPAAEHSTITAWGKDHEKDAFEHIVTQFSSVPVSVVSDSYDIYNACEKIWGEDLRHLIVSRSTQAPLIIRPDSGNPLDTVLKVLEILGKKFPVTENSKGYKLLPPYLRVIQGDGVDINTLQEIVEGMKQKMWSIENIAFGSGGGLLQKLTRDLLNCSFKCSYVVTNGLGINVFKDPVADPNKRSKKGRLSLHRTPAGNFVTLEEGKGDLEEYGQDLLHTVFKNGKVTKSYSFDEIRKNAQLNIELEAAHH
# notes: Pulled down with anti-His, so it carries a His tag; also called eNAMPT (rNAMPT); unlabeled NAMPT
# B4: fluorescently labeled CYBB (enzyme)
# chain: MGNWAVNEGLSIFVILVWLGLNVFLFVWYYRVYDIPPKFFYTRKLLGSALALARAPAACLNFNCMLILLPVCRNLLSFLRGSSACCSTRVRRQLDRNLTFHKMVAWMIALHSAIHTIAHLFNVEWCVNARVNNSDPYSVALSELGDRQNESYLNFARKRIKNPEGGLYLAVTLLAGITGVVITLCLILIITSSTKTIRRSYFEVFWYTHHLFVIFFIGLAIHGAERIVRGQTAESLAVHNITVCEQKISEWGKIKECPIPQFAGNPPMTWKWIVGPMFLYLCERLVRFWRSQQKVVITKVVTHPFKTIELQMKKKGFKMEVGQYIFVKCPKVSKLEWHPFTLTSAPEEDFFSIHIRIVGDWTEGLFNACGCDKQEFQDAWKLPKIAVDGPFGTASEDVFSYEVVMLVGAGIGVTPFASILKSVWYKYCNNATNLKLKKIYFYWLCRDTHAFEWFADLLQLLESQMQERNNAGFLSYNIYLTGWDESQANHFAVHHDEEKDVITGLKQKTLYGRPNWDNEFKTIASQHPNTRIGVFLCGPEALAETLSKQSISNSESGPRGVHFIFNKENF
# Legend:
# [1] = molecular target: B2; assay: co-IP (anti-NAMPT) from LPS/ATP-treated BMDMs, anti-ASC blot
# [2] = molecular target: B3; assay: co-IP (anti-His) from BMDMs incubated with rNAMPT, anti-ASC blot
# [3] = molecular target: T1, endogenous TLR4 of mouse macrophages …; assay: co-IP (anti-His or anti-NAMPT) from mouse colon tissue, anti-TLR4 blot
# [4] = molecular target: T2, endogenous CYBB of mouse macrophages …; assay: co-IP (anti-His or anti-NAMPT) from mouse colon tissue, anti-CYBB blot
# [5] = molecular target: T3, endogenous NLRP3 of mouse macrophages (BMDMs) (mouse, UniProt Q8R4B8 1-1033, limits assumed); assay: co-IP (anti-NAMPT) from LPS/ATP-treated BMDMs, anti-NLRP3 blot
# T3 sequence (Q8R4B8 whole entry): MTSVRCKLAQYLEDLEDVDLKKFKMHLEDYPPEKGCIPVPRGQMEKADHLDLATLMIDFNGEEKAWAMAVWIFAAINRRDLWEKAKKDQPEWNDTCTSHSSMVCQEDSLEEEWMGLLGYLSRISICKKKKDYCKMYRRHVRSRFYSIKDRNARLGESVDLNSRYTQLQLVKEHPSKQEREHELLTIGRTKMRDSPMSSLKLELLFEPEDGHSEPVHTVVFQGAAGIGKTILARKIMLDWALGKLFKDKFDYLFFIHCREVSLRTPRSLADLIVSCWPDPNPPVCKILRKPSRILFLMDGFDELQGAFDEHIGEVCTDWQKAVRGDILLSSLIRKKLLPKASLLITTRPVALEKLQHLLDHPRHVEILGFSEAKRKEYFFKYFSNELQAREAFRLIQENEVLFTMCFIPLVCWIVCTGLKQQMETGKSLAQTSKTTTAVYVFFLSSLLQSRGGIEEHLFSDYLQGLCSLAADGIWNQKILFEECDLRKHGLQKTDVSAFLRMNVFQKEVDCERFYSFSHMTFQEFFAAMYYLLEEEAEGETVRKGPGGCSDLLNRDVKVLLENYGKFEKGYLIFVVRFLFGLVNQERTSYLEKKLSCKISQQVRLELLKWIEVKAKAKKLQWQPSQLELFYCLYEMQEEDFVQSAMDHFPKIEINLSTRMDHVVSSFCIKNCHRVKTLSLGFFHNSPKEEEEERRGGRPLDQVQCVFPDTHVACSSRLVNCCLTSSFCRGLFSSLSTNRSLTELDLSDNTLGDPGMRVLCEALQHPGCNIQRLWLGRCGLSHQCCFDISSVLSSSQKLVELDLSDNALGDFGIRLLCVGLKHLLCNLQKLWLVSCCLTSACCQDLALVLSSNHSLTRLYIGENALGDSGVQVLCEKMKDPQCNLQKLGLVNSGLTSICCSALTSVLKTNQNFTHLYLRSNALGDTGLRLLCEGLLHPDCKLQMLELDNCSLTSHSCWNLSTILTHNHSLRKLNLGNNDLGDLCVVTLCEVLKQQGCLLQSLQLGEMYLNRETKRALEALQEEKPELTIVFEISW
# [6] = molecular target: T3, endogenous NLRP3 of mouse macrophages …; assay: co-IP (anti-His) from BMDMs incubated with rNAMPT, anti-NLRP3 blot
# [7] = molecular target: B3; assay: fluorescence binding: titration of fluorescently labeled CYBB with unlabeled rNAMPT, curve fit
# Experimental: Specifically, (A) normal human cases along with UC patients were used for IB with αNAMPT and αCYBB. For IB with αActin (upper), whole cell lysates (WCLs) were used. Representative gel images derived from five independent healthy controls and patients were shown. […] Five of ten data from normal human and UC patients were shown. […] (B) The colons of normal mice and mice with acute and chronic colitis were analyzed for IB with αNAMPT and αCYBB. WCLs were used for IB together with αActin. Biological replicates (n=10) for each condition were performed. (C) BMDMs were activated with LPS (100 ng/mL) for the indicated times (left), primed with LPS (100 ng/ml) for 4 hours, and then stimulated with ATP (1 mM) for the indicated times (right). IB in the supernatant (SN) with αNAMPT and WCL with αNAMPT or αActin. […] BMDMs were treated for IP with αNAMPT or αHis, and then treated sequentially IB with αTLR4, αCYBB, or αCYBA (D), and IB with αASC or αNLRP3(E). WCLs were used for IB with αTLR4, αCYBB, αCYBA, αASC, αNLRP3 or αActin.
binder,measurement,setting,value
B1,binding result,[1],no binding
same,binding result,[2],no binding (tested: 1 ug/mL rNAMPT)
B2,binding result,[3],binds
same,binding result,[4],binds
same,binding result,[5],no binding
B3,binding result,[6],no binding (tested: 1 ug/mL rNAMPT)
B4,Kd,[7],896 nM

# From patent publication US20240299505A1 (INDUSTRY UNIVERSITY COOPERATION FOUNDATION HANYANG …, published 2024)
